Test results reported in patent US20240189443A1, “PD-L1 AND TLR7 DOUBLE-TARGETING NANOBODY COUPLING DRUG AND USE THEREOF IN ANTI-TUMOR” (SHANGHAI INSTITUTE OF MATERIA MEDICA, CHINESE ACADEMY OF …, priority 2021, published 2024).
Several values for one entry are separate records, joined by “and”; a condition that tells them apart may be missing. Equal entries are not always repeated.

Tests used:
[1] = tested on: B16-F10 cells; assay: Uninduced B16-F10 subcutaneous tumor-bearing model with low expression PD-L1; type: in vivo, C57BL/6 mouse; conditions: 10 mg/kg intraperitoneal
Experimental: The 6 to 8-week-old C57BL 6 mice were randomly divided into two groups, which were respectively as an mFc group and a nanobody-coupled drug NB 16-SZU-101 group. 1×10^6 B16-F10 cells (FIG. 9A) of 1×10^6 non-induced low-expression PD-L1 were planted under the underarm skin of mice (FIG. 9A). Administration was performed by using mFc and nanobody coupled drug Nb16-SZU-101, respectively; the administration dosage of the control drug and Nb16-SZU-101 was 10 mg/kg, and the volume is 200 μL; each group of drug delivery manners was intraperitoneal injection. Each group was administered at 2th, 5th, 8th and 11th days after tumor implantation, respectively, and the drug was administered for […]. On Day 12 mice would be euthanized.

[2] = tested on: induced CT26; assay: Induced (high expression) PD-L1 CT26 subcutaneous tumor-bearing model; type: in vivo, BALB/c mouse; conditions: 10 mg/kg intraperitoneal, 4 doses
Description: (§1) In FIG. 8A, it has been shown that the non-induced CT26 cell surface PD-L1 expression is approximately 17.3%, and the expression level of PD-L1 is increased to 98.1% only after IFN-γ induction. Therefore, we researched and compared the effects of the coupling compound in the non-induced and induced CT26 mouse tumor model, respectively.
(§2) In the two models, CT26 tumor cells were subcutaneously inoculated into female BALB/c mice before and after induction respectively to construct tumor-bearing mouse models, and the inoculation amount was 1×10^6 cells/one; the mice are randomly divided into two groupswith 6 mice of each group, that is, a blank control group mFc (the concentration is 10 mg/kg), and a coupling compound Nb16-SZU-101 group (the concentration was 10 mg/kg); the administration dosage was 200 μl, and the administration modes were both intraperitoneal administration; administration was performed on Day 2, Day 5, Day 8 and Day 11 respectively, and administration was carried out for 4 times; the size of the tumor was measured for 2-3 times every week, and a tumor growth curve was drawn; and anatomical weighing and photographing were performed on the mouse at Day 12.

[3] = tested on: non-induced CT26; assay: Uninduced (low expression) PD-L1 CT26 subcutaneous tumor-bearing model; type: in vivo, BALB/c mouse; conditions: 10 mg/kg intraperitoneal, 4 doses
Description: as §1, §2

[4] = tested on: IFN-γ-induced high-expression PD-L1 CT26; assay: IFN-γ-induced high-expression PD-L1 CT26 subcutaneous tumor-bearing model, conjugate vs combined administration; type: in vivo, BALB/c mouse; conditions: Nb16 or Nb16-SZU-101 10 mg/kg, SZU-101 0.5 mg/kg, intraperitoneal
Experimental: In an IFN-γ-induced high-expression PD-L1 CT26 subcutaneous tumor-bearing BALB/c mouse model, mice were randomly divided into four groups, namely an mFc group, an Nb16 group, an Nb16/SZU-101 combined administration group and an NB16-SZU-101 nanobody conjugate drug group, wherein the administration dosage of the mFc or Nb 16 or Nb16-SZU-101 was 10 mg/kg, the administration mode was intraperitoneal administration, the administration dosage of the SZU-101 was 0.5 mg/kg, and the administration mode was intraperitoneal administration; the drug was administered on Day 2, Day 6, Day 10 and Day 13 for a total of 4 times. Tumor sizes were measured 2-3 times per week, and tumor growth curves were drawn; and anatomical weighing and photographing were performed on mice at Day 14.

[5] = tested on: tumor immune microenvironment (CT26 subcutaneous tumors); assay: Tumor immunotyping analysis by flow cytometry after conjugate administration; type: in vivo, BALB/c mouse; conditions: compared to mFc group
Experimental: At a mouse anatomical endpoint of example 8.1, subcutaneous tumors were taken, 150 mg of tumor tissue was taken and cut into meat paste, and the meat paste was oscillated and digested at 180 rpm for 1.5 h at 37° C. in hyaluronidase and collagenase IV, and processed into a single cell suspension. The pretreated cell suspension was divided into two parts, one part was used for immunotyping analysis of macrophages and dendritic cells, and one part was used for immune typing analysis of T cells and NK cells.
The suspension treatment of macrophages and dendritic cell samples: the cells were treated with 2-4 mL sterile red blood cell lysis solution for 8 min and terminated with PBS buffer solution to remove red blood cells and fragments in the sample suspension; the cell sample was cleaned for use.
T cell and NK cell sample suspension treatment: the cells were centrifuged with lymphocyte separation liquid to obtain a lymphocyte separation layer, that is, the lymphocyte separation layer was a tumor lymphocyte suspension, and wascleaned for use.
The macrophages and dendritic cell samples and T cells and NK cell samples were sealed at 4° C. with an Fc receptor confining liquid for 1 hour, and non-specific staining caused by the Fc receptor was removed; cell surface protein staining is performed, specifically: M1 macrophages (FITC Rat Anti-Mouse CD45, PE-Cyanine7 Rat Anti-Mouse F4/80 and APC Rat anti-Mouse CD86), M2 macrophages (FITC RATw Anti-Mouse CD45 and PE-Cynine 7 RAT Anti-Mouse F4/80), dendritic cells (PE-Cy7 Anti-Mouse CD11c, BB515 Rat Anti-Mouse I-A/I-E, PE Hamster Anti-Mouse CD80, and APC Rat anti-Mouse CD86), CD4+T cells and CD8+T cells (FITC Hamster Anti-Mouse CD3e, PerCP-Cy™ 5.5 Rat Anti-Mouse CD4 and APC Rat Anti-Mouse CD8a), Treg cells (FITC Hamster Anti-Mouse CD3e, PerCP-CYy™ 5.5 Rat Anti-Mouse CD4 and PE Rat Anti-Mouse CD25), NK cells (CD3-FITC, CD49b-APC, CD69-PE), followed by dyeing on ice for 20 min.; then intracellular protein staining is performed, and after the cell is subjected to a fixed membrane rupture treatment, the cell is subjected to membrane rupture dyeing, specifically: M2 macrophages (MS CD206 Alexa 647 and ANTI-MOUSE LAP PE), functional T cells(ANTI-MOUSE GRANZYME B (NGZB) PE) containing granzyme, functional T cells (PE Rat Anti-Mouse IFN-γ) containing IFN-γ, Treg cells (ANTI-MOUSE/RAT FOXP3 APC), and then stained for 20 min on ice; after cleaning, re-suspending the sample cell sap, and performing on-machine detection on the flow cytometer.

B1: Nb16-SZU-101: PD-L1 and TLR7 dual-targeting nanobody coupling drug, Nb16 coupled with SZU-101-NHS active ester (conjugate)
chain: QVQLQESGGGSVQAGGSLRLSCAASGYTDRNYWMGWFRQAPGKEREGVAALYTRTGSTYYADSVKGRFTISHDNAKNTLYLQMNSLKPEDTAVYYCAADSNAYGLAPLHHYWGQGTQVTVSS
modifications: left off: a dimerising Fc or GST
Tumor inhibition rate [1]: about 68.2%
Tumor growth inhibition rate [2]: 83.6%
Tumor growth inhibition rate [3]: 78.9%
Tumor inhibitory rate ([4]; Day 14, 4 doses): 81%
Anti-tumor effect [4]: significantly improved anti-tumor effect
Endpoint tumor Weight ([4]; individual mice, Day 14, 4 doses): 0.191 g and 0.146 g and 0.155 g and 0.084 g and 0.012 g and 0.087 g
Expression of granzyme B and IFN-γ in tumor-infiltrating cytotoxic cells [5]: promote the expression
Function of tumor-infiltrating cytotoxic cells (CD8+T cells and NK cells) [5]: significantly increases
Infiltration of IFN-γ+CD4+T cells [5]: significantly increased
Infiltration of TGF-β+macrophages [5]: reduce the infiltration
Macrophage expression of PD-L1 in tumor microenvironment [5]: promotes macrophage expression of PD-L1
Re-polarization of tumor-associated macrophages [5]: promote the re-polarization
Maturation of dendritic cells ([5]; tumors of example 8.1): promotes maturation of dendritic cells
